Reference: patent US20240336909

B1: Neutrophil Elastase (protein)
chain: IVGGRRARPHAWPFMVSLQLRGGHFCGATLIAPNFVMSAAHCVANVNVRAVRVVLGAHNLSRREPTRQVFAVQRIFENGYDPVNLLNDIVILQLNGSATINANVQVAQLPAQGRRLGNGVQCLAMGWGLLGRNRGIASVLQELNVTVVTSLCRRSNVCTLVRGRQAGVCFGDSGSPLVCNGLIHGIASFVRGGCASGLYPDAFAPVAQFVNWIDSIIQ
B2: Cathepsin G (protein)
chain: IIGGRESRPHSRPYMAYLQIQSPAGQSRCGGFLVREDFVLTAAHCWGSNINVTLGAHNIQRRENTQQHITARRAIRHPQYNQRTIQNDIMLLQLSRRVRRNRNVNPVALPRAQEGLRPGTLCTVAGWGRVSMRRGTDTLREVQLRVQRDRQCLRIFGSYDPRRQICVGDRRERKAAFKGDSGGPLLCNNVAHGIVSYGKSSGVPPEVFTRVSSFLPWIRTTMRS
B3: MMP-2 (protein)
chain: YNFFPRKPKWDKNQITYRIIGYTPDLDPETVDDAFARAFQVWSDVTPLRFSRIHDGEADIMINFGRWEHGDGYPFDGKDGLLAHAFAPGTGVGGDSHFDDDELWTLGEGQVVRVKYGNADGEYCKFPFLFNGKEYNSCTDTGRSDGFLWCSTTYNFEKDGKYGFCPHEALFTMGGNAEGQPCKFPFRFQGTSYDSCTTEGRTDGYRWCGTTEDYDRDKKYGFCPETAMSTVGGNSEGAPCVFPFTFLGNKYESCTSAGRSDGKMWCATTANYDDDRKWGFCPDQGYSLFLVAAHEFGHAMGLEHSQDPGALMAPIYTYTKNFRLSQDDIKGIQELYGASPDIDLGTGPTPTLGPVTPEICKQDIVFDGIAQIRGEIFFFKDRFIWRTVTPRDKPMGPLLVATFWPELPEKIDAVYEAPQEEKAVFFAGNEYWIYSASTLERGYPKPLTSLGLPPDVQRVDAAFNWSKNKKTYIFAGDKFWRYNEVKKKMDPGFPKLIADAWNAIPDNLDAVVDLQGGGHSYFFKGAYYLKLENQSLKSVKFGSIKSDWLGC
B4: Matriptase (protein)
chain: VVGGTDADEGEWPWQVSLHALGQGHICGASLISPNWLVSAAHCYIDDRGFRYSDPTQWTAFLGLHDQSQRSAPGVQERRLKRIISHPFFNDFTFDYDIALLELEKPAEYSSMVRPICLPDASHVFPAGKAIWVTGWGHTQYGGTGALILQKGEIRVINQTTCENLLPQQITPRMMCVGFLSGGVDSCQGDSGGPLSSVEADGRIFQAGVVSWGDGCAQRNKPGVYTRLPLFRDWIKENTGV

Columns and labels:
[1] = molecular target: AxCT mask27 EGFR EH104 L066 version 1
[2] = molecular target: AxCT mask27 EGFR EH104 L041 version 1
[3] = molecular target: AxCT mask27 EGFR EH104 L070 version 1
[4] = molecular target: AxCT mask27 EpCAM H90.2 L040 version 1
[5] = molecular target: AxCT mask27 EGFR EH104 L061 version 1
[6] = molecular target: AxCT mask27 EGFR EH104 L067 version 1
[7] = molecular target: AxCT mask27 EGFR EH104 L059 version 1
[8] = molecular target: AxCT mask27 EpCAM H90.2 L043 version 1
[9] = molecular target: AxCT mask27 EGFR EH104 L060 version 1
[10] = molecular target: AxCT mask27 EGFR EH104 L062 version 1
[11] = molecular target: AxCT mask27 EGFR EH104 L055 version 1
[12] = molecular target: AxCT mask27 EGFR EH104 L040 version 1
[13] = molecular target: AxCT mask27 EGFR EH104 L065 version 1
[14] = molecular target: AxCT mask27 EGFR EH104 L068 version 1
[15] = molecular target: AxCT mask27 EGFR EH104 L063 version 1
[16] = molecular target: AxCT mask27 EGFR EH104 L073 version 1
[17] = molecular target: AxCT mask27 EGFR EH104 L064 version 1
[18] = molecular target: AxCT mask27 EpCAM H90 L001 version 1
[19] = molecular target: AxCT mask27 EGFR EH104 L056 version 1
[20] = molecular target: AxCT mask27 EGFR EH104 L057 version 1
[21] = molecular target: AxCT mask27 EpCAM H90.2 L060 version 1
[22] = molecular target: AxCT mask27 EpCAM H90.2 L076 version 1
[23] = molecular target: AxCT mask27 EGFR EH104 L069 version 1
[24] = molecular target: AxCT mask27 EGFR EH104 L072 version 1
[25] = molecular target: AxCT mask27 EGFR EH104 L043 version 1
[26] = molecular target: AxCT mask27 EGFR EH104 L058 version 1
[27] = molecular target: AxCT mask27 EpCAM H90.2 L059 version 1
[28] = molecular target: AxCT mask27 EpCAM H90.2 L064 version 1
[29] = molecular target: AxCT mask27 EpCAM H90.2 L041 version 1
[30] = molecular target: AxCT mask27 EGFR EH104 L054 version 1
[31] = molecular target: AxCT mask27 EpCAM H90.2 L073 version 1
[32] = molecular target: AxCT mask27 EpCAM H90.2 L075 version 1
[33] = molecular target: AxCT mask27 EpCAM H90.2 NCLV
[34] = molecular target: AxCT mask27 EGFR EH104 L001 version 1
[35] = molecular target: AxCT mask27 EpCAM H90.2 L061 version 1
[36] = molecular target: AxCT mask27 EGFR EH104 L071 version 1
[37] = molecular target: AxCT mask27 EpCAM H90.2 L063 version 1

Row | Protein | Percent cleavage [1] [%] | Percent cleavage [2] [%] | Percent cleavage [3] [%] | Percent cleavage [4] [%] | Percent cleavage [5] [%] | Percent cleavage [6] [%] | Percent cleavage [7] [%] | Percent cleavage [8] [%] | Percent cleavage [9] [%] | Percent cleavage [10] [%] | Percent cleavage [11] [%] | Percent cleavage [12] [%] | Percent cleavage [13] [%] | Percent cleavage [14] [%] | Percent cleavage [15] [%] | Percent cleavage [17] [%] | Percent cleavage [18] [%] | Percent cleavage [19] [%] | Percent cleavage [20] [%] | Percent cleavage [21] [%] | further results
1 | B1 | 9 | 0 | 11 | 9 | 19 | 32 | 15 | 0 | 10 | 8 | 9 | 13 | 10 | 19 | 9 | 30 | 44 | 14 | 28 | 7 | Percent cleavage [16]: 9%; Percent cleavage [22]: 6%; Percent cleavage [23]: 22%; Percent cleavage [24]: 10%; Percent cleavage [25]: 7%; Percent cleavage [26]: 9%; Percent cleavage [27]: 14%; Percent cleavage [28]: 32%; Percent cleavage [29]: 0%; Percent cleavage [30]: 23%; Percent cleavage [31]: 10%; Percent cleavage [32]: 0%; Percent cleavage [33]: 0%; Percent cleavage [34]: 34%; Percent cleavage [35]: 14%; Percent cleavage [36]: 26%; Percent cleavage [37]: 0%
2 | B2 | 0 | 0 | 0 | 0 | 0 | 0 | 8 | 0 | 0 | 0 | 0 | 0 | 0 | 0 | 0 | 0 | 0 | 0 | 0 | 0 | Percent cleavage [16]: 0%; Percent cleavage [22]: 0%; Percent cleavage [23]: 12%; Percent cleavage [24]: 0%; Percent cleavage [25]: 0%; Percent cleavage [26]: 0%; Percent cleavage [27]: 6%; Percent cleavage [28]: 0%; Percent cleavage [29]: 0%; Percent cleavage [30]: 0%; Percent cleavage [31]: 0%; Percent cleavage [32]: 8%; Percent cleavage [33]: 0%; Percent cleavage [34]: 0%; Percent cleavage [35]: 0%; Percent cleavage [36]: 0%; Percent cleavage [37]: 0%
3 | B3 | 25 | 51 | 22 | 90 | 43 | 34 | 39 | 39 | 27 | 63 | 35 | 60 | 71 | 48 | 31 | 63 | 104 | 51 | 47 | 40 | Percent cleavage [22]: 35%; Percent cleavage [23]: 29%; Percent cleavage [24]: 73%; Percent cleavage [25]: 27%; Percent cleavage [26]: 62%; Percent cleavage [27]: 55%; Percent cleavage [28]: 79%; Percent cleavage [30]: 59%; Percent cleavage [31]: 17%; Percent cleavage [32]: 0%; Percent cleavage [33]: 0%; Percent cleavage [34]: 71%; Percent cleavage [35]: 74%; Percent cleavage [36]: 39%; Percent cleavage [37]: 36%
4 | B4 | 0 | 62 | 13 | 93 | 20 | 0 | 33 | 79 | 62 | 52 | 53 | 67 | 0 | 0 | 49 | 0 | 42 | 39 | 36 | 92 | Percent cleavage [16]: 0%; Percent cleavage [22]: 0%; Percent cleavage [23]: 0%; Percent cleavage [24]: 0%; Percent cleavage [25]: 59%; Percent cleavage [26]: 23%; Percent cleavage [27]: 39%; Percent cleavage [28]: 0%; Percent cleavage [29]: 80%; Percent cleavage [30]: 37%; Percent cleavage [31]: 0%; Percent cleavage [32]: 0%; Percent cleavage [33]: 0%; Percent cleavage [34]: 37%; Percent cleavage [35]: 22%; Percent cleavage [36]: 0%; Percent cleavage [37]: 68%
